Assay results: the Human Domainome abundance scans (Beltran et al. 2025)
± gives the uncertainty stated by the source.

B1: Gamma-crystallin D, residues 90 to 170; numbered along this chain, P07320 (parent)
chain: IRLYEREDYRGQMIEFTEDCSCLQDRFRFNEIHSLNVLEGSWVLYELSNYRGRQYLLMPGDYRRYQDWGATNARVGSLRRV

Variants of: B1
Experiment: abundance fitness (aPCA) (normalised: wild type 0, dead -1); higher = more abundant; growth selection in yeast, the domain comes from the species named
Details: Homo sapiens

Variant	abundance fitness
S48D	0.138 ± 0.12
S48K	-0.017 ± 0.15
S48I	-0.152 ± 0.15
S48G	-0.049 ± 0.065
S48R	-0.14 ± 0.073
S48Y	-0.194 ± 0.27
S48M	-0.166 ± 0.15
S48F	-0.124 ± 0.12
S48C	0.009 ± 0.1
S48E	0.208 ± 0.14
S48Q	-0.191 ± 0.17
S48L	-0.204 ± 0.087
S48T	-0.134 ± 0.36
S48V	-0.159 ± 0.078
G60L	-0.197 ± 0.064
G60S	0.064 ± 0.086
G60M	-0.128 ± 0.11
G60W	-0.133 ± 0.1
G60F	-0.188 ± 0.2
G60R	-0.04 ± 0.055
G60N	-0.167 ± 0.34
G60D	-0.08 ± 0.15
G60T	-0.122 ± 0.14
G60K	0.029 ± 0.12

Variant	abundance fitness
G60Q	0.001 ± 0.14
G60E	0.155 ± 0.09
G60A	-0.038 ± 0.069
G60H	-0.225 ± 0.2
G60Y	-0.176 ± 0.16
G60P	-0.702 ± 0.17
N49I	-0.485 ± 0.21
N49G	-0.074 ± 0.059
N49R	-0.107 ± 0.059
N49M	0.008 ± 0.15
N49Q	0.015 ± 0.12
N49T	-0.561 ± 0.19
N49A	-0.109 ± 0.076
N49F	-0.135 ± 0.19
N49P	-0.182 ± 0.11
N49K	-0.086 ± 0.18
N49E	0.054 ± 0.11
N49S	-0.09 ± 0.082
N49L	0.045 ± 0.094
N49Y	-0.03 ± 0.19
Y45G	-0.441 ± 0.061
Y45L	-0.708 ± 0.13
Y45A	-0.347 ± 0.083
Y45H	-0.151 ± 0.19

Variant	abundance fitness
Y45E	-1.04 ± 0.19
Y45C	-0.273 ± 0.14
Y45R	-0.439 ± 0.072
Y45D	-1.01 ± 0.24
Y45N	-0.507 ± 0.29
Y45V	-0.88 ± 0.14
Y45T	-0.07 ± 0.097
Y45P	-0.553 ± 0.15
Y45S	-0.157 ± 0.089
Y45M	-0.401 ± 0.13
Y45Q	-0.395 ± 0.19
M58P	0.201 ± 0.11
M58F	-0.073 ± 0.17
M58C	0.074 ± 0.12
M58W	-0.118 ± 0.09
M58R	-0.02 ± 0.062
M58E	0.043 ± 0.11
M58S	0.055 ± 0.072
M58Y	0.174 ± 0.2
M58A	0.032 ± 0.065
M58G	0.093 ± 0.052
M58L	0.015 ± 0.087
M58Q	0.066 ± 0.12
M58V	0.032 ± 0.063

Variant	abundance fitness
M58D	0.021 ± 0.13
M58I	-0.047 ± 0.13
M58H	0.008 ± 0.18
M58N	0.037 ± 0.17
M58T	0.125 ± 0.13
G52T	-1.07 ± 0.3
G52D	-0.775 ± 0.25
G52F	-0.583 ± 0.47
G52E	-0.493 ± 0.073
G52M	-0.57 ± 0.23
G52A	-0.489 ± 0.072
G52W	-0.697 ± 0.11
G52L	-0.432 ± 0.1
G52H	-0.43 ± 0.19
G52V	-0.919 ± 0.13
G52K	-0.849 ± 0.27
G52Q	-0.599 ± 0.23
G52S	-0.389 ± 0.08
G52N	-0.705 ± 0.31
G52R	-0.51 ± 0.093
G52I	-0.943 ± 0.32
G52C	-0.421 ± 0.12
Q54G	-0.203 ± 0.12
Q54P	-0.036 ± 0.094

Variant	abundance fitness
Q54W	-0.39 ± 0.11
Q54A	-0.119 ± 0.093
Q54M	-0.261 ± 0.11
Q54K	-0.052 ± 0.13
Q54L	-0.149 ± 0.11
Q54E	0.018 ± 0.14
Q54V	-0.193 ± 0.085
Q54R	-0.066 ± 0.12
Q54D	0.007 ± 0.19
Q54S	0.013 ± 0.1
Q54T	0.035 ± 0.11
Q54C	-0.206 ± 0.11
Q54H	-0.117 ± 0.14
Q54Y	-0.119 ± 0.26
Q54I	-0.245 ± 0.17
V43A	-0.059 ± 0.11
V43G	-0.026 ± 0.064
V43P	-0.844 ± 0.2
V43M	0.079 ± 0.11
V43F	-0.125 ± 0.14
V43R	0.006 ± 0.067
V43K	-0.148 ± 0.13
V43D	-0.017 ± 0.17
V43Y	-0.229 ± 0.18

Variant	abundance fitness
V43H	-0.129 ± 0.45
V43N	-0.157 ± 0.28
V43T	-0.113 ± 0.17
V43E	0.204 ± 0.13
V43L	-0.1 ± 0.12
V43S	-0.029 ± 0.081
V43W	-0.028 ± 0.12
L44H	-0.721 ± 0.26
L44R	-1.17 ± 0.18
L44P	-1.04 ± 0.28
L44W	-0.414 ± 0.1
L44D	-0.93 ± 0.2
L44I	0.048 ± 0.2
L44Q	-0.563 ± 0.25
L44T	-0.03 ± 0.12
L44F	-0.021 ± 0.16
L44G	-0.024 ± 0.057
L44N	-0.938 ± 0.4
L44C	-0.093 ± 0.12
L44A	0.006 ± 0.12
L44Y	-0.073 ± 0.14
L44V	0.035 ± 0.1
Y62H	-0.076 ± 0.18
Y62P	-0.919 ± 0.17

Variant	abundance fitness
Y62W	0.026 ± 0.094
Y62I	-0.061 ± 0.3
Y62S	0.016 ± 0.058
Y62G	-0.242 ± 0.064
Y62C	0.264 ± 0.15
Y62A	0.153 ± 0.056
Y62E	-0.401 ± 0.085
Y62R	0.229 ± 0.06
Y62V	0.041 ± 0.066
Y62T	-0.251 ± 0.093
Y62L	0.178 ± 0.068
Y62M	0.096 ± 0.086
Y62N	-0.125 ± 0.14
Y62K	0.11 ± 0.16
Y62Q	-0.301 ± 0.14
Y62F	-0.147 ± 0.21
Y62D	-0.904 ± 0.18
Y55H	-0.018 ± 0.27
Y55K	0.087 ± 0.12
Y55W	-0.001 ± 0.11
Y55R	0.014 ± 0.081
Y55D	-0.23 ± 0.18
Y55I	0.298 ± 0.22
